Data: the DeepSol protein solubility set

Assay: soluble on expression in E. coli; label from the status in PepcDB or PDB records

Sequence	soluble on expression in E. coli
MGSDKIHHHHHHGCDDNTGGLGLGMFPGNDQNIKGKLSTFDVTTESVKTGDIYAKTNIGYIGKFTDETFGTYQAGFLAQLNCPDGLTFPEPYKEVTDASGNVISATGRMVVDDKDPENKDVTFIKDGNQIIGNIRAVELYLWYDSYFGDSLTACRLSVYELGGNGKETLNLDNAYYTDINPEDFYDSQNILGTKAYTAVDLSVKDSIRNLSTYVPSVHIAFKEDIATRVGGNILTAARKAKNADKEFNSQLFREAFQGIYVKSDYGDGTVLYIDQPQMNVVYKCYATDSITGKKLQKKDGSGKDSTYYSYRVFATTREVIQANQLKNDPERIDALIKEDKNTYLKSPAGIFTEATLPISDIQNELTGDTLNAVKLTFTNYNQTGDKKFGMAIPSTVMLVRKKFQDSFFKDNKLSDGVSSYLTSHTSSTNQYVFSNITKLVNACIAEKEEAKKNAGSSWDETKWLQENPDWNKVVLIPVLVTYDSSNTTTGQANIIRIQHDLKPGYVRLKGGSLGKTNPDYKLKLEVISTDFGLTTKSN	not soluble
MNTRTWFVLLCLALPLVSLQAQPHPQTEQTSPALSEHTEMDHTEMNHTEMDHTEMDHTEMDHTEMDHTQMDHTQMDHTQMDHAIHGATTQFAGDGSLPPPSAAALAAAFPPLRHRAAHAPPLVSLVRIDRLETWNADPGRGHAWATQAWIGSDIQRLWLRSQGECYGGRCQSVAVEMLYGHDISPWWDALIGARRDVQPDGRTWAALGVQGVAPYKFESAAFLYLSGAAMRLMVETKYDLLLSQRLILQPSLQATAGLTRDRDLGAGPQTLQVGIRMRYQITRRVAPYVGWEREYGYGESGRQARARGTSDHEKRWVAGIRCWFLEHHHHHH	soluble
MKVVIASDHGGMNIRKELVSLLEELNIEYIDLGCECEAGSVDYPDFAFPAAEMVANGEVDRGILVCGTGIGMSIAANKVNGIRCALVHDTFSARATREHNDTNMLAMGERVIGAGLARDIAKIWLTTEFEGGRHENRVGKIKTYEAK	not soluble
PSEIFYQAKVREQKERHARYHDTTYNLEPDIKSTPGGLRDIHTLSWVARRHFGATSLYEMSRFGFLTDAEYRELVECQDFLWRVRFALHIELKRYDNRLTFAHQVQVARHLGYFGEGNRGIEMMMKEFFRTLRRVAELNKMLLKIFDKAILNNGEEAEAVIIDDDFQRRGNMIEARKPALFQARPETILDMFLHMASDSTIESVAPATMRQLRTARRRLN	not soluble
SLVARSVVVSAEAVYSHEGEYVGDHVLVDEGLVKSISRGEPHVSVGKRVAVKGFLLPPLVDAHLHMRSLGASFRIVNLKGASSPEEVAKRLAAANSPIAVGRGWNEEEFRPGSRLDRRILDSYLGEKPALAVRICGHVAVANSAFIRESGVDKLFPNLVDRERGLLLEDAVSYAVSVAMKTYNNEELLRDAASALASVGVFGVSSMACSEEEVRALSLIGDALEVRVACYLRRGVEPPPKRAGARWSIVGVKLFADGSLGGRTAYLRRPYISGENEGWRGLKLLSSRDIAEEAVSNSHRGLATAVHAIGDAALDEVLEGFSNAISRGVEPGMLRVEHASLAWPNQIDRLASLRVWTVVQPLFRVSDWWLESRVGSDMLQAAYPFASMLRAGVKLALSTDAPVETYDPAETFKAAVGLCSSRLCRESESLTPRETLKLYTLNSALASGGPVAWLGRLRRGAPALFAVANVDVLNSGRKELEKLKFRGLNLAK	not soluble
GKNVMVEPHRHEGVFICRGKEDALVTKNLVPGESVYGEKRVSISEGDDKIEYRAWNPFRSKLAAAILGGVDQIHIKPGAKVLYLGAASGTTVSHVSDIVGPDGLVYAVEFSHRSGRDLINLAKKRTNIIPVIEDARHPHKYRMLIAMVDVIFADVAQPDQTRIVALNAHTFLRNGGHFVISIKANCIDSTASAEAVFASEVKKMQQENMKPQEQLTLEPYERDHAVVVGVYRP	soluble
MGSDKIHHHHHHMEKIKGKNTVNCEICLHNSKTRPMFKHEGKNICIECLNALKFPRNFEEMKNEVMDYLDELRIRNNKYNCILGFSGGKDSVVALYLLVKELRIRPLCVTVDNGYLAEEALTNCKNVAKYFGVDWLVINKDFTKFFKETISKGESPCRVCSDMNMHELWQFARQTNIDTIVTGHELPFGTTAIRGMKKGINMLRLLVAYKLTEEDRYNILKEIPWEKPDLGGYTTNCLVLAPALVEFKKKHGFSFEYDRVSAMIRYGLMTREEAEEALKCPEVSDEIYEELKKRGLDFKNLKE	not soluble
NENFRWKTAVNMSMNRNKVVSLHKDYKSFRYGSEGFSMAYDMWVKEGGKLGDIYGNGFERDENGKIKLNETGNPIKVTGNNTLLGNANPDALLGWSNTFTYKGFTLYFLIDARIGGDVMSLTQAHLDAMGVSKESGESRDRGYVEYEGIQFKDVPNFYGTVGGRNGISEYYMYDATNVRLRELTLGYSFPETLLAKTKFIKGLDLTLVARNLFFLYKDAPFDPDATLSVGNTLQGVDVFGMPTTRNIGFNVKFTF	not soluble
MINHLSAIDDIADAEQIRVLFYASNRMVHAPLNKVLDLIKNDTQRDLLSALTQYQEATEQRIETLQKNLDALRLQVSLSTHNLKK	not soluble
MENPINELAAAVHDGLGLTYPPIIDMGPQLTREQLLASMSATMRRHKGGPVWLFAYGSLIWRPECTAVESQRGRVHGYHRGLYLWSHEHRGTPEVPGLVFGLDRGGSCTGFAYRLPDDCLEKSLLALWEREMPYPSYRPHWLNCRLEDGRKVQALGFVLERHLPSYAGNLPDSVLSQVLASASGRYGTTRDYVEQTAKALRSHAMPDLNLEARLKRCKSETAAAALEHHHHHH	not soluble
MKSIIIAAPHSGSGKTTITLGIMECLKRRGLTVAPFKVGPDFIDPGYHRLICGRPSVNLDGWMCGGDFVQETFFHHAAGADIAVVEGVMGLFDGIGGVSDEGSTAEVAKLLGGPVVLVADAKGQARSVAALVKGFADFDPEVRVVGVIFNNVASDAHGRILREAVESHLPDVRVLGCIPRDESLSIPSRHLGLFTVDENPLPAEFLDHLVEVVREHVDLGMLWSVATLQGASDVKRRQDAPRREPVRIGVARDAAFCFVYEDNLRLLREAGAELVEFSPLADRELPEGVAGLYLPGGYPEVFADVLADNTPMKDAVRGAVVGEMPVYAECGGFIYLSRGVTGMRDDLESFNEFVGIFPVATLMLPRRKALGYREVELAADSIIGPVGAMARGHEFHYSEMEAMPPEVERLYRVRRAGIDLGTEGYRHRNCLASYVHIHFGSCPDMAEAFVNHCRNYAQRSHSLEHHHHHH	soluble
MEKRRVILVTDGDEFACRAIERVAAEIGGRCISRSQGNPTKLSGEQLVELILQTPHDPVFVMFDDCGALGEGAGEQALRYVATHEQIQVLGALAVASNTHQHEWTKVHVSIDRDGVMTEYGVDKEGFRDLEIGRINGDTVYCLDRLNIPLIVGIGDIGKMGYRDHAKYGAPITRKAVELILERSGGHAGKRKETESADREAAR	not soluble
MGSDKIHHHHHHMPGNSSGVAAVERAVSMLEAFTDVDYSLTLGELARRTELDKSTVLRIARSLAKSSMLVRNDDASWRLGPKLVRLGGLYQSTFKSSAIVEPLLAQISDESGESAAVYVKEGVVRVCLHRHDSTQSIRHSARVGDAMPLDRGAPGRVILAFTGSSGKLYDDIRAKGFHVTIGERDPQVASVAVPVYRDGQALFGSLALTGPPSRFNEEAVSKNLEILRVAARKLSAALGGDPG	not soluble
MATDTSSPKHEPIIIAVEPYGGSVRDHSPLLPLVYWDDAAVTRGDGVFETILFRHGRACNLERHAQRFRESAVLLDLPEPRLDHWVHATSMAVEKWFQQSESDAKCVWTYTRGRASTGHPSAWLTITAVPDCVIEQREQGVRVMTTPRGYHIDTSNSVPWVVIGAKTLNYASNMAALRWAKKEGFDDVIFTEQDRILEGATSTVVTFRGNKIRSPFPGGDVLPGTTQAALFDYATNLGWNCKLKDMDEVYLTEKADSVWLISSVRGATRVRRINDTKLPRPDNESEIRELIEAALTAL	not soluble
